In this experiment the target is L1.3 ORF2p-3×FLAG (human, UniProt O00370 1-1275). The experiment is described as follows: co-IP; ORF2p-3×FLAG precipitated with anti-FLAG from lysate of HEK293T cells transfected with pTMF3 together with pCMV-3Tag-9, HERC5 or MOV10 vector; ORF1p-T7 detected by anti-T7 blot, band intensities given as ORF1p/ORF2p ratio relative to the control; pTMH3 as negative control. The conditions noted are these: partners not purified.
Chain of L1.3 ORF2p-3×FLAG (O00370 whole entry): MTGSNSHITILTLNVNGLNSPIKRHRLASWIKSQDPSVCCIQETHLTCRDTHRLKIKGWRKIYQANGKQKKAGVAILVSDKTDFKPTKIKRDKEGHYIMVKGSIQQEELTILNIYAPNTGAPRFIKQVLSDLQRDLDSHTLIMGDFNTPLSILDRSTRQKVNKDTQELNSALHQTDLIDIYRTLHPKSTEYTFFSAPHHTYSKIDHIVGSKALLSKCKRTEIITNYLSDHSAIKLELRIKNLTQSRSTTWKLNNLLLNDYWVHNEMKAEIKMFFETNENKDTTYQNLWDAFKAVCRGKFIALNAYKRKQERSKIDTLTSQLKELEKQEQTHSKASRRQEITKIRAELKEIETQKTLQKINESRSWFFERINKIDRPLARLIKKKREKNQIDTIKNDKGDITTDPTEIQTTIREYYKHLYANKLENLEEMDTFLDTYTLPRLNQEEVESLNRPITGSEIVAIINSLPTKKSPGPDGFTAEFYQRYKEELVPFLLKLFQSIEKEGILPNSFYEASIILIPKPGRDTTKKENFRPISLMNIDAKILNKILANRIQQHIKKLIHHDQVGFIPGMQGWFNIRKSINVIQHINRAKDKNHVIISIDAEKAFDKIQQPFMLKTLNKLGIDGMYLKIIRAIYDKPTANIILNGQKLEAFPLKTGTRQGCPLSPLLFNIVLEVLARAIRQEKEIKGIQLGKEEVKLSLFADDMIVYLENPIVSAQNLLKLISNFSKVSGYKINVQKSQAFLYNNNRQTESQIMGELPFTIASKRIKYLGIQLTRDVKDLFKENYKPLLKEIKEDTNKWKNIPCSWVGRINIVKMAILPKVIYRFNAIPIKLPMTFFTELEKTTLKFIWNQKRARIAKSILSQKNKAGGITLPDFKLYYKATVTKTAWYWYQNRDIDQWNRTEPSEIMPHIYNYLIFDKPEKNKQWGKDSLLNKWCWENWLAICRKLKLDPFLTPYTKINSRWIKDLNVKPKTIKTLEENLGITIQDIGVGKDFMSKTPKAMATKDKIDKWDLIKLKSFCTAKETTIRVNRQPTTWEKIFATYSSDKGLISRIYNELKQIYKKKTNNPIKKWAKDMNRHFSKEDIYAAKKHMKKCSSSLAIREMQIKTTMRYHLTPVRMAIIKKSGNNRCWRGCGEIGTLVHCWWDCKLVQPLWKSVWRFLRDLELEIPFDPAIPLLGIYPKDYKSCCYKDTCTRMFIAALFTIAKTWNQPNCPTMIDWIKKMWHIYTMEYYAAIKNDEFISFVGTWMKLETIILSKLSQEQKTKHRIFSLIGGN

B1: L1.3 ORF1p-T7 (natural protein)
chain: MGKKQNRKTGNSKTQSASPPPKERSSSPATEQSWMENDFDELREEGFRRSNYSELREDIQTKGKEVENFEKNLEECITRITNTEKCLKELMELKTKARELREECRSLRSRCDQLEERVSAMEDEMNEMKREGKFREKRIKRNEQSLQEIWDYVKRPNLRLIGVPESDVENGTKLENTLQDIIQENFPNLARQANVQIQEIQRTPQRYSSRRATPRHIIVRFTKVEMKEKMLRAAREKGRVTLKGKPIRLTADLSAETLQARREWGPIFNILKEKNFQPRISYPAKLSFISEGEIKYFIDKQMLRDFVTTRPALKELLKEALNMERNNRYQPLQNHAKM
notes: ORF1p of the human LINE-1 element L1.3, expressed from the full-length L1.3 in pTMF3 or pTMH3; residues counted from the first methionine of L1.3 ORF1p; From pTMH3 in the HERC5-3×FLAG IP and from pTMF3 in the ORF2p-3×FLAG IP; source: HEK293T, transfected, in lysate
On to B1, for which the “decrease of the ORF1p/ORF2p ratio in the ORF2p-3×FLAG IP with HERC5 overexpression, against the empty vector” value was around 60%.

(Values after article PMC13128273, “The interferon-stimulated gene product HERC5 inhibits human LINE-1 retrotransposition with an ISGylation-independent mechanism” (Nucleic Acids Research, 2026).)
